{
  "source": "patent US20200010567A1",
  "about": "(NEURIMMUNE, published 2020)",
  "assay_in_all_cases": "indirect ELISA, His-tagged peptide coated at 50 ug/ml, antibody titrated [also D00025 FIG. 7I]",
  "key": {"[1]": {"biological_target": "T1, GA5: H-(GA)5HHHHHH-NH2", "T1 peptide": "H-GAGAGAGAGAHHHHHH-NH2", "experimental": "(§1) 96-well microplates (Corning Incorporated, Corning, USA) were coated with dipeptide repeat protein peptides at a concentration of 50 μg/ml in coating buffer (15 mM Na₂CO₃, 35 mM NaHCO₃, pH 9.42). Non-specific binding sites were blocked for 1 h at room temperature with PBS/0.1% Tween®-20 containing 2% BSA (Sigma-Aldrich, Buchs, Switzerland). Primary antibodies were diluted to the indicated concentrations and incubated 1 h at room temperature, followed by incubation with a donkey anti-human IgG Fcγ-specific antibody conjugated with HRP (Jackson ImmunoResearch Laboratories, Inc., West Grove, USA). Binding was determined by measurement of HRP activity in a standard colorimetric assay. EC₅₀ values were estimated by non-linear regression using GraphPad Prism software (San Diego, USA).\n(§2) High affinity binding was detected for poly-GA DPRs harboring 10 or 20 (GA)-repeats, reflected in an EC₅₀ in the subnanomolar or low nanomolar range (FIGS. 7A, 7C-7I)."}, "[2]": {"biological_target": "T2, GA4: H-(GA)4HHHHHH-NH2", "T2 peptide": "H-GAGAGAGAHHHHHH-NH2", "experimental": "as §1, §2"}, "[3]": {"biological_target": "T3, GA3: H-(GA)3HHHHHH-NH2", "T3 peptide": "H-GAGAGAHHHHHH-NH2", "experimental": "as §1, §2"}, "[4]": {"biological_target": "T4, GA2: H-(GA)2HHHHHH-NH2", "T4 peptide": "H-GAGAHHHHHH-NH2", "experimental": "as §1, §2"}},
  "data": [
    {"binder": "NI-308.45C2 (antibody, V domains shown, Recombinant complete human IgG1, kappa) VH: QLQLQESGPGLVKPSQILSLTCAISGDSVFSNSAAWNWIRQSPSRGLEWLGRTYYRSKWDNDYAPSVKSRISINPDTSKNQFSLQLNSVTPEDTAVYYCAREVAYCGGDCYSVSFDYWGQGTLVTVSS VL: not shown", "values": [
      {"measurement": "binding result", "setting": "[1]", "value": "no binding (tested: about 4x10^5 pM (last point))"},
      {"measurement": "binding result", "setting": "[2]", "value": "no binding (tested: about 4x10^5 pM (last point))"},
      {"measurement": "binding result", "setting": "[3]", "value": "no binding (tested: about 4x10^5 pM (last point))"},
      {"measurement": "binding result", "setting": "[4]", "value": "no binding (tested: about 4x10^5 pM (last point))"}
    ]}
  ]
}
